# In publication doi:10.1101/2021.02.28.433298:
# Read-outs that look alike come from different tables or passages of the source.
# T1: CytR DBD (Escherichia coli, UniProt P0ACN7 1-67)
# T1 sequence: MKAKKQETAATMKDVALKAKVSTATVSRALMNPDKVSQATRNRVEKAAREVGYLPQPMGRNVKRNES
# B1: nonspecific 30 bp (dsDNA)
# DNA 1: GTACAGAACATGTCTAAGCATGCTGGGGAC
# DNA 2: GTCCCCAGCATGCTTAGACATGTTCTGTAC
# B2: nonspecific 14 bp (dsDNA)
# DNA 1: AGCATGCTGGGGAC
# DNA 2: GTCCCCAGCATGCT
# B3: udp left half-site (dsDNA)
# DNA 1: ATTTATGCAACGCA
# DNA 2: TGCGTTGCATAAAT
# B4: udp full-site operator (CytO) (dsDNA)
# DNA 1: GTAAATTTATGCAACGCATTTGCGTCATGGTG
# DNA 2: CACCATGACGCAAATGCGTTGCATAAATTTAC
# What was measured:
# [1] = biological target: T1, CytR DBD; experiment: fluorescence anisotropy
# [2] = biological target: T1, CytR DBD; experiment: fluorescence anisotropy; remark: listed apart in the source
# [3] = biological target: T1, CytR DBD; experiment: fluorescence anisotropy; remark: listed apart in the source
# [4] = biological target: T1, CytR DBD; experiment: NMR
binder,measurement,setting,value
B1,Kd,[1],1.81 µM
B2,Kd,[2],5.7 µM
B3,Kd,[3],9.6 ± 1.8 µM
B4,binding result,[4],binds
